Results taken from patent US20190314526A1.

Key:
Experiment in all cases: cell-based or functional assay
[1] = target: AAV-2 capsid mutant D132N (rAAV-2 virion) (AAV-2) (UniProt P03135)
[2] = target: AAV-2 capsid mutant D357E (rAAV-2 virion) (AAV-2) (UniProt P03135)
[3] = target: AAV-2 capsid mutant D377A (rAAV-2 virion) (AAV-2) (UniProt P03135)
[4] = target: AAV-2 capsid mutant E394A (rAAV-2 virion) (AAV-2) (UniProt P03135)
[5] = target: AAV-2 capsid mutant E394K (rAAV-2 virion) (AAV-2) (UniProt P03135)
[6] = target: AAV-2 capsid mutant E411A/T413A/G449A/N450A/N568A/V571A (rAAV-2 virion) (AAV-2) (UniProt P03135)
[7] = target: AAV-2 capsid mutant E418A (rAAV-2 virion) (AAV-2) (UniProt P03135)
[8] = target: AAV-2 capsid mutant E437A (rAAV-2 virion) (AAV-2) (UniProt P03135)
[9] = target: AAV-2 capsid mutant F396A (rAAV-2 virion) (AAV-2) (UniProt P03135)
[10] = target: AAV-2 capsid mutant G128A (rAAV-2 virion) (AAV-2) (UniProt P03135)
[11] = target: AAV-2 capsid mutant G375P (rAAV-2 virion) (AAV-2) (UniProt P03135)
[12] = target: AAV-2 capsid mutant G449A/N568A (rAAV-2 virion) (AAV-2) (UniProt P03135)
[13] = target: AAV-2 capsid mutant H372K (rAAV-2 virion) (AAV-2) (UniProt P03135)
[14] = target: AAV-2 capsid mutant K390A (rAAV-2 virion) (AAV-2) (UniProt P03135)
[15] = target: AAV-2 capsid mutant K395A (rAAV-2 virion) (AAV-2) (UniProt P03135)
[16] = target: AAV-2 capsid mutant K407A (rAAV-2 virion) (AAV-2) (UniProt P03135)
[17] = target: AAV-2 capsid mutant N133A (rAAV-2 virion) (AAV-2) (UniProt P03135)
[18] = target: AAV-2 capsid mutant N360H/S361A (rAAV-2 virion) (AAV-2) (UniProt P03135)
[19] = target: AAV-2 capsid mutant N568A/V571A (rAAV-2 virion) (AAV-2) (UniProt P03135)
[20] = target: AAV-2 capsid mutant Q438A (rAAV-2 virion) (AAV-2) (UniProt P03135)
[21] = target: AAV-2 capsid mutant Q452A (rAAV-2 virion) (AAV-2) (UniProt P03135)
[22] = target: AAV-2 capsid mutant R334A (rAAV-2 virion) (AAV-2) (UniProt P03135)
[23] = target: AAV-2 capsid mutant R334A/G449A (rAAV-2 virion) (AAV-2) (UniProt P03135)
[24] = target: AAV-2 capsid mutant R334A/G449A/N568A (rAAV-2 virion) (AAV-2) (UniProt P03135)
[25] = target: AAV-2 capsid mutant R334A/N568A (rAAV-2 virion) (AAV-2) (UniProt P03135)
[26] = target: AAV-2 capsid mutant R448K (rAAV-2 virion) (AAV-2) (UniProt P03135)
[27] = target: AAV-2 capsid mutant S130A (rAAV-2 virion) (AAV-2) (UniProt P03135)
[28] = target: AAV-2 capsid mutant S130T (rAAV-2 virion) (AAV-2) (UniProt P03135)
[29] = target: AAV-2 capsid mutant T413K (rAAV-2 virion) (AAV-2) (UniProt P03135)
[30] = target: AAV-2 capsid mutant W365A (rAAV-2 virion) (AAV-2) (UniProt P03135)
[31] = target: AAV-2 with a wild-type capsid (rAAV-2 virion) (AAV-2) (UniProt P03135)

For “purified human IgG from >10,000 donors (Panglobulin, ZLB Bioplasma AG)”, the Fold decrease in neutralizing titer [1] was 3.8 fold, the Fold decrease in neutralizing titer [2] was 1.7 fold and the Fold decrease in neutralizing titer [3] was 1.9 fold. It also gave a Fold decrease in neutralizing titer [4] of 1.5 fold, a Fold decrease in neutralizing titer [5] of 2.3 fold and a Fold decrease in neutralizing titer [6] of 1.3 fold. The Fold decrease in neutralizing titer [7] was 1.5 fold, the Fold decrease in neutralizing titer [8] was 2 fold and the Fold decrease in neutralizing titer [9] was 1.6 fold. For the same substance, the Fold decrease in neutralizing titer [10] was 4.1 fold, the Fold decrease in neutralizing titer [11] was 1.9 fold and the Fold decrease in neutralizing titer [12] was 1.7 fold. The Fold decrease in neutralizing titer [13] was 1.1 fold, the Fold decrease in neutralizing titer [14] was 2.3 fold and the Fold decrease in neutralizing titer [15] was 4.9 fold. For the same substance, the Fold decrease in neutralizing titer [16] was 3.3 fold, the Fold decrease in neutralizing titer [17] was 0.9 fold and the Fold decrease in neutralizing titer [18] was 2.1 fold. The Fold decrease in neutralizing titer [19] was 2.5 fold, the Fold decrease in neutralizing titer [20] was 1.3 fold and the Fold decrease in neutralizing titer [21] was 1.3 fold. The Fold decrease in neutralizing titer [22] was 2.2 fold, the Fold decrease in neutralizing titer [23] was 3.9 fold and the Fold decrease in neutralizing titer [24] was 3 fold. For the same substance, the Fold decrease in neutralizing titer [25] was 2.4 fold, the Fold decrease in neutralizing titer [26] was 1 fold and the Fold decrease in neutralizing titer [27] was 1.4 fold. The Fold decrease in neutralizing titer [28] was 1.8 fold, the Fold decrease in neutralizing titer [29] was 2.6 fold and the Fold decrease in neutralizing titer [30] was 10.4 fold. For the same substance, the Fold decrease in neutralizing titer [31] was 1 fold.
